From US20140045211A1

Target: CCR1 on HEK293 cells / HEK293 membranes stably expressing CCR1 (UniProt P32246)
Experiment: cell-based or functional assay

CCR1 on HEK293 cells / HEK293 membranes stably expressing CCR1, sequence (P32246 whole entry): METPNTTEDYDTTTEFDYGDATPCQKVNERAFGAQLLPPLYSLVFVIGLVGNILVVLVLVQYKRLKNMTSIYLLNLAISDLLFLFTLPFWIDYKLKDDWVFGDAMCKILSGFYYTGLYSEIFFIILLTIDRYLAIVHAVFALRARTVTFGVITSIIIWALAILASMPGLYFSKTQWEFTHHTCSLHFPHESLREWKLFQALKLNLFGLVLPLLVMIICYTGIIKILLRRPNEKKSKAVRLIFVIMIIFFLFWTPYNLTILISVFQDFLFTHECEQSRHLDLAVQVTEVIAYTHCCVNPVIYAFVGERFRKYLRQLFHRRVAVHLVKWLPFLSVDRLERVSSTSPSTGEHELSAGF

calcium flux (dose response curve): 2 nM
Substance: CCL14-fluorescein (CCL14 9-74 with added C-terminal cysteine labeled with fluorescein-5-maleimide) (from UniProt Q16627 28-93) (ligand)
